Laboratory results published in patent CN115368447A (HEFEI TIANGANG IMMUNOLOGY PHARMACEUTICAL CO LTD, dated 2022).

How the values were obtained:
4-1BB-strep tagII蛋白 = molecular target: T1, 4-1BB-strep tagII蛋白 (Homo sapiens (Human), UniProt Q07011 24-186); assay: ELISA, 4-1BB-strep tagII coated at 2 ug/mL, HRP anti-human IgG, OD450
T1 construct: Soluble 4-1BB with C-terminal strep tag II, made in house; Coated on the ELISA plate at 2 ug/mL; also called 4-1BB蛋白

[1] = molecular target: T2, 4-1BB蛋白 (SEQ ID NO:27), expressed on CHO-K1-4-1BB cells and Jurkat-NFAT-lucia-4-1BB cells (Homo sapiens (Human), UniProt Q07011 24-255); assay: flow cytometry on CHO-K1-4-1BB cells, Alexa-647 anti-human Fc
T2 construct: expressed by lentiviral transduction; also called CHO-K1-4-1BB细胞; Jurkat-NFAT-lucia-4-1BB细胞

[2] = molecular target: T3, Nectin-4蛋白 (SEQ ID NO:29), expressed on CHO-K1-Nectin-4 cells and A375-Nectin-4 cells (Homo sapiens (Human), UniProt Q96NY8 32-510); assay: flow cytometry on CHO-K1-Nectin-4 cells, Alexa-647 anti-human Fc
T3 construct: expressed by lentiviral transduction; also called CHO-K1-Nectin-4细胞; A375-Nectin-4细胞
T3 sequence: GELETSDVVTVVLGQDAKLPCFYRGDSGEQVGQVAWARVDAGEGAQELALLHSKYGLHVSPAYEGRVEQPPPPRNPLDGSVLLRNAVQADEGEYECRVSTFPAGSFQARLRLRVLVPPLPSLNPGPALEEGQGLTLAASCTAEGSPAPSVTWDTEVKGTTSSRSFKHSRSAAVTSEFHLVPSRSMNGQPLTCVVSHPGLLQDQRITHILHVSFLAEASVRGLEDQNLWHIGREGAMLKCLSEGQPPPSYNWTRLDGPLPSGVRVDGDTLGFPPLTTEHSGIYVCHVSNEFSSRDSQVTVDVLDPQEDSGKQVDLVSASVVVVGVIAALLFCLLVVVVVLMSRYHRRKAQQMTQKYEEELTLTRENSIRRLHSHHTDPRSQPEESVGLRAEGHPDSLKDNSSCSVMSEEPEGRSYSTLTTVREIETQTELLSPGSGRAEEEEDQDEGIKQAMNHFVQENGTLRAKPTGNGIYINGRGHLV

Measured: binding result

T2 sequence (Q07011 24-255 limits assumed): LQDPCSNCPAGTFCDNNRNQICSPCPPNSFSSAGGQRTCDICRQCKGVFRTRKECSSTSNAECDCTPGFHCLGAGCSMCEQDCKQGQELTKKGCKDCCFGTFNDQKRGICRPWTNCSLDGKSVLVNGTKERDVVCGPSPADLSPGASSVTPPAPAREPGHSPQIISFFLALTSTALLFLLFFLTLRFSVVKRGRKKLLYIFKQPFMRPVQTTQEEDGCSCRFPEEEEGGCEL

B1: 抗体4-1BB×Nectin-4 (bispecific antibody, human IgG1, kappa, L234A L235A)
scFv: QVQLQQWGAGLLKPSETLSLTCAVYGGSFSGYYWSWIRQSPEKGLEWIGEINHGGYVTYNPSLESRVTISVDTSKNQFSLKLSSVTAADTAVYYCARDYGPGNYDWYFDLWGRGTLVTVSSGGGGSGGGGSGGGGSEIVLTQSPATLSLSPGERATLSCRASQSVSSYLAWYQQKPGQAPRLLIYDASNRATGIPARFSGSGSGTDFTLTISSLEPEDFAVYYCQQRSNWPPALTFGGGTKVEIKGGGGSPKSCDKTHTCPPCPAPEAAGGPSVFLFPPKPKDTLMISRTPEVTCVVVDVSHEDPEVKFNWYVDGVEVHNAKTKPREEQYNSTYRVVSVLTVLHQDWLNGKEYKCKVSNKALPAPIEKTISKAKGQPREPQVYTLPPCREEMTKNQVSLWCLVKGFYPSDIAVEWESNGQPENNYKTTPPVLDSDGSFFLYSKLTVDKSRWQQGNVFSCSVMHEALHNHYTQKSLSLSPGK
heavy: EVQLVESGGGLVQPGGSLRLSCAASGFTFSSYNMNWVRQAPGKGLEWVSYISSSSSTIYYADSVKGRFTISRDNAKNSLSLQMNSLRDEDTAVYYCARAYYYGMDVWGQGTTVTVSSASTKGPSVFPLAPSSKSTSGGTAALGCLVKDYFPEPVTVSWNSGALTSGVHTFPAVLQSSGLYSLSSVVTVPSSSLGTQTYICNVNHKPSNTKVDKKVEPKSCDKTHTCPPCPAPEAAGGPSVFLFPPKPKDTLMISRTPEVTCVVVDVSHEDPEVKFNWYVDGVEVHNAKTKPREEQYNSTYRVVSVLTVLHQDWLNGKEYKCKVSNKALPAPIEKTISKAKGQPREPQVCTLPPSREEMTKNQVSLSCAVKGFYPSDIAVEWESNGQPENNYKTTPPVLDSDGSFFLVSKLTVDKSRWQQGNVFSCSVMHEALHNHYTQKSLSLSPGK
light: DIQMTQSPSSVSASVGDRVTITCRASQGISGWLAWYQQKPGKAPKFLIYAASTLQSGVPSRFSGSGSGTDFTLTISSLQPEDFATYYCQQANSFPPTFGGGTKVEIKRTVAAPSVFIFPPSDEQLKSGTASVVCLLNNFYPREAKVQWKVDNALQSGNSQESVTEQDSKDSTYSLSSTLTLSKADYEKHKVYACEVTHQGLSSPVTKSFNRGEC
notes: Three chains: anti-4-1BB scFv-Fc (knob); human IgG1 Fc with L234A/L235A already contained in the entries; Produced in ExpiCHO, Protein A purified; also called 4-1BB×Nectin-4抗体; 4-1BB×Nectin-4双特异抗体
binds: 4-1BB-strep tagII蛋白 | [1] | [2]
